Measurements published in article PMC1807962 (Nucleic Acids Research, 2007).
Several values for one entry are separate records, joined by “and”; a condition that tells them apart may be missing. Equal values may be shown once.

Key:
Assay in all cases: SEC
[1] = target: Sso MCM AAA+ core domain (Sulfolobus solfataricus)
[2] = target: Sso MCM C-half (C-terminal half, AAA+ and HTH domains) (Sulfolobus solfataricus)
[3] = target: Sso MCM ▵A (lacking the N-terminal A domain) (Sulfolobus solfataricus)
[4] = target: Sso MCM ▵A/HTH (lacking both the A domain and the HTH domain) (Sulfolobus solfataricus)
SEC = target: the molecule itself

## Sso MCM AAA+ core domain (domain or fragment)
[1]
  stoichiometry N: 2

## Sso MCM C-half (C-terminal half, AAA+ and HTH domains) (domain or fragment)
[2]
  stoichiometry N: 2

## Sso MCM ▵A (lacking the N-terminal A domain) (domain or fragment)
[3]
  stoichiometry N: 6

## Sso MCM ▵A/HTH (lacking both the A domain and the HTH domain) (domain or fragment)
[4]
  stoichiometry N: 6

B1: Sulfolobus solfataricus MCM, full-length, wild-type (natural protein)
chain: MEIPSKQIDYRDVFIEFLTTFKGNNNQNKYIERINELVAYRKKSLIIEFSDVLSFNENLAYEIINNTKIILPILEGALYDHILQLDPTYQRDIEKVHVRIVGIPRVIELRKIRSTDIGKLITIDGILVKVTPVKERIYKATYKHIHPDCMQEFEWPEDEEMPEVLEMPTICPKCGKPGQFRLIPEKTKLIDWQKAVIQERPEEVPSGQLPRQLEIILEDDLVDSARPGDRVKVTGILDIKQDSPVKRGSRAVFDIYMKVSSIEVSQKVLDEVIISEEDEKKIKDLAKDPWIRDRIISSIAPSIYGHWELKEALALALFGGVPKVLEDTRIRGDIHILIIGDPGTAKSQMLQFISRVAPRAVYTTGKGSTAAGLTAAVVREKGTGEYYLEAGALVLADGGIAVIDEIDKMRDEDRVAIHEAMEQQTVSIAKAGIVAKLNARAAVIAAGNPKFGRYISERPVSDNINLPPTILSRFDLIFILKDQPGEQDRELANYILDVHSGKSTKNIIDIDTLRKYIAYARKYVTPKITSEAKNLITDFFVEMRKKSSETPDSPILITPRQLEALIRISEAYAKMALKAEVTREDAERAINIMRLFLESVGVDMESGKIDIDTIMTGKPKSAREKMMKIIEIIDSLAVSSECAKVKDILKEAQQVGIEKSNIEKLLTDMRKSGIIYEAKPECYKKV
SEC
  stoichiometry N: ≤ 12 and 6
